Assay [1] deals with gp130 expressed endogenously on IMR-32/STAT3-Luc cells (human) (UniProt P40189). Kind of assay: cell-based or functional assay.
The target of assay [2] is wild-type human GP130 on HEK293.STAT3.Luc.GP130.hLEPR reporter cells (human) (UniProt P40189). Kind of assay: cell-based or functional assay.
wild-type human GP130 on HEK293.STAT3.Luc.GP130.hLEPR reporter cells (human), sequence (P40189 23-918): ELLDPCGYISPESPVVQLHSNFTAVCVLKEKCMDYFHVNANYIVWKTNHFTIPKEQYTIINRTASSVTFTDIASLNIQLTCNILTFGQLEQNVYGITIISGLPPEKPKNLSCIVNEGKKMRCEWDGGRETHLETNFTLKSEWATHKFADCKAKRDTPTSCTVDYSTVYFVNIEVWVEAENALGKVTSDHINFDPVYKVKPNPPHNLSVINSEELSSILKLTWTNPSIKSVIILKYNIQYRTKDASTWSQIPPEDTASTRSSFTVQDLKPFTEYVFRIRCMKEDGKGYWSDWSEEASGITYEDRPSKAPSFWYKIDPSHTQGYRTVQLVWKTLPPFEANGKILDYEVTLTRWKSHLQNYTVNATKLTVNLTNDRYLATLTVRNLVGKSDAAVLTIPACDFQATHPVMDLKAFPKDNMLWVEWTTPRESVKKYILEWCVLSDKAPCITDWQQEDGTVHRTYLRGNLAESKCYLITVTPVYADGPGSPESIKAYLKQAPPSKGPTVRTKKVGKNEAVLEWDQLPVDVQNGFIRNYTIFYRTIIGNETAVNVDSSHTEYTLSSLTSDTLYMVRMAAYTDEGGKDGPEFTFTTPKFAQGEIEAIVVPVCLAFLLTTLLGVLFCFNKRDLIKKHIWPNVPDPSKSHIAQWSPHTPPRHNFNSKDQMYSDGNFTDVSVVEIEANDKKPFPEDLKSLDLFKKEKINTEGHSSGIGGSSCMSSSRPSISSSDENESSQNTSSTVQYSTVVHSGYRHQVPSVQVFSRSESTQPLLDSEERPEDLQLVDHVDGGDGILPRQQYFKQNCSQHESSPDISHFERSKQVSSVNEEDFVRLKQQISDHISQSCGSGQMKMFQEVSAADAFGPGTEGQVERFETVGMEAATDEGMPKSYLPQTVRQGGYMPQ

gp130 expressed endogenously on IMR-32/STAT3-Luc cells (human), sequence (P40189 23-918): as above

B1: human Ciliary Neurotrophic Factor (ligand, UniProt P26441 2-200, looked up)
chain: AFTEHSPLTPHRRDLCSRSIWLARKIRSDLTALTESYVKHQGLNKNINLDSADGMPVASTDQWSELTEAERLQENLQAYRTFHVLLARLLEDQQVHFTPTEGDFHQAIHTLLLQVAAFAYQIEELMILLEYKIPRNEADGMPINVGDGGLFEKKLWGLKVLQELSQWTVRSIHDLRFISSHQTGIPARGSHYIANNKKM
The molecule B1 gave an EC50 of activation of IMR-32/STAT3-luc cells (STAT3-luciferase) in assay [1] of 4 pM.

B2: human Oncostatin M (ligand, UniProt P13725 26-252, looked up)
chain: AAIGSCSKEYRVLLGQLQKQTDLMQDTSRLLDPYIRIQGLDVPKLREHCRERPGAFPSEETLRGLGRRGFLQTLNATLGCVLHRLADLEQRLPKAQDLERSGLNIEDLEKLQMARPNILGLRNNIYCMAQLLDNSDTAEPTKAGRGASQPPTPTPASDAFQRKLEGCRFLHGYHRFMHSVGRVFSKWGESPNRSRRHSPHQALRKGVRRTRPSRKGKRLMTRGQLPR
In assay [2], B2 registered an EC50 (M), STAT3-luciferase activation of HEK293.STAT3.Luc.GP130.hLEPR (Y1141F) cells of 5.92e-10 M; an EC50 (M), STAT3-luciferase activation of HEK293.STAT3.Luc.GP130.hLEPR (a) cells of 1.21e-10 M; a Percentage activation as compared to hOSM of 100%; a Percentage maximum activation as compared to hOSM of 100%. The EC50 of activation of IMR-32/STAT3-luc cells (STAT3-luciferase) in assay [1] turned out to be 54 pM.

Source of the values: patent US20190185562A1.
